Literature values as cited in PMC7556843.

Columns and labels:
[1] = target: linear tetraubiquitin (Ub4) (Homo sapiens) (UniProt P0CG47)
[2] = target: linear diubiquitin (Ub2) (Homo sapiens) (UniProt P0CG47)

Chain of NEMO 242-419 (Q9Y6K9 242-419): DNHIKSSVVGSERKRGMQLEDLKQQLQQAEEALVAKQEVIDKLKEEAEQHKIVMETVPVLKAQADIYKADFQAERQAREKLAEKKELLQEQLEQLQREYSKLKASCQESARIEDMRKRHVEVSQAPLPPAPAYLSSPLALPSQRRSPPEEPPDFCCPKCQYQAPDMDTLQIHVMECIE

Which results are given for NEMO 242-419 (from UniProt Q9Y6K9)?
Kd [1]: 0.3 µM; Kd [2]: 3 µM
